B1: CD2-associated protein, residues 1 to 59; numbered along this chain, Q9Y5K6 (parent)
chain: MVDYIVEYDYDAVHDDELTIRVGEIIRNVKKLQEEGWLEGELNGRRGMFPDNFVKEIKR

Variants of: B1
Assay: abundance fitness (aPCA) (normalised: wild type 0, dead -1); higher = more abundant; growth selection in yeast, the domain comes from the species named
Settings: Homo sapiens

Abundance fitness: each site, then its substitutions
P50: N -0.261; A -0.502; E -0.968; H -0.149; F -0.589; S -0.329; K -0.184; T -0.746; L -0.412; V -0.996; R 0.115; I -0.843; G -0.322
G40: R -0.858; E -0.926; S -0.463; K -0.541; M -0.661; L -0.945; A -0.999; V -0.904; D -0.825
N52: G -0.128; P -0.065; F 0.073; T -0.05; I -0.141; V 0.061; H -0.284; Y -0.203; A -0.091; M -0.155; K 0.071; S 0.107; Q -0.127; E -0.263; C -0.041; L -0.03; D -0.236; R 0.028
M48: R 0.071; C -0.012; H -0.257; T 0.035; K 0.093; V -0.053; Q -0.015; Y -0.063; F -0.175; G -0.33; I 0.115; S 0.048; N 0.047; L -0.065; D -0.573; P -0.524; A 0.045; W -0.126
R45: V -0.275; H 0.232; M -0.274; L -0.224; F -0.248; K -0.075; G -0.7; Y -0.359; C 0.033; I -0.191; S -0.07; N -0.16; Q -0.009; A -0.27
F49: L -0.251; K -0.826; S -0.695; P -0.877; I -0.195; Q -0.857; V -0.056; A -0.539; M -0.38
V54: H -0.484; P -0.604; T -0.209; A -0.258; S -0.358; R -0.557; G -0.075
F53: W -0.026; Q -0.317; H 0.111; R 0.001; A 0.052; M -0.047; E -0.155; D -0.433; C 0.122; I -0.119; S 0.035; N -0.053; G -0.145; V 0.023; Y -0.131; T 0.205; P -0.249; L 0.056
L38: P -1.07; D -0.721; M 0.049; E -0.867; G -0.996; R -0.563; Y -0.27; I -0.433; H -0.662; T -0.548; F -0.105; C -0.193; A -0.25; N -0.558; S 0.003; K -0.264; V -0.525
L42: I 0.043; F -0.212; H -0.297; S -0.267; T -0.515; Y -0.839; W -0.399; Q -0.328; M -0.678; V -0.146; A -0.327; C -0.012
Q33: T 0.006; Y -0.242; H -0.119; A -0.071; C -0.192; G 0.015; F -0.182; D 0.065; E -0.014; M -0.238; V -0.317; I -0.36; K -0.07; N 0.102; W -0.474; R -0.084; S 0.03; L -0.351
K55: C -0.027; D -0.755; Q 0.032; R 0.009; L -0.303; F -0.961; I -0.177; H -0.301; G -0.216; E -0.489; M -0.218; N -0.272; P -0.507
E35: C -0.156
